Source: paper PMC6972895

Biological target: Chaperonin-containing TCP-1 (CCT) oligomeric complex (human (endogenous in T47D)) (UniProt P17987)
Assay: native gel or EMSA; native PAGE of T47D CCT2-FLAG cell lysates; blotted for FLAG, CCT2 and CCT3; oligomeric complex against free monomer

B1: CCT2-FLAG (FLAG-tagged CCT2, FLAG tag on the C-terminal of CCT2) (natural protein)
chain: MASLSLAPVNIFKAGADEERAETARLTSFIGAIAIGDLVKSTLGPKGMDKILLSSGRDASLMVTNDGATILKNIGVDNPAAKVLVDMSRVQDDEVGDGTTSVTVLAAELLREAESLIAKKIHPQTIIAGWREATKAAREALLSSAVDHGSDEVKFRQDLMNIAGTTLSSKLLTHHKDHFTKLAVEAVLRLKGSGNLEAIHIIKKLGGSLADSYLDEGFLLDKKIGVNQPKRIENAKILIANTGMDTDKIKIFGSRVRVDSTAKVAEIEHAEKEKMKEKVERILKHGINCFINRQLIYNYPEQLFGAAGVMAIEHADFAGVERLALVTGGEIASTFDHPELVKLGSCKLIEEVMIGEDKLIHFSGVALGEACTIVLRGATQQILDEAERSLHDALCVLAQTVKDSRTVYGGGCSEMLMAHAVTQLANRTPGKEAVAMESYAKALRMLPTIIADNAGYDSADLVAQLRAAHSEGNTTAGLDMREGTIGDMAILGITESFQVKRQVLLSAAEAAEVILRVDNIIKAAPRKRVPDHHPC
percent of the total FLAG signal as free monomer: 24%
